Earlier results in article PMC12580572.

Tests used:
[1] = biological target: GluK2 (Rattus norvegicus) (UniProt P42260)
[2] = biological target: GluK5 (Rattus norvegicus) (UniProt Q63273)
UniProt Q63273, sequence (Q63273 15-979): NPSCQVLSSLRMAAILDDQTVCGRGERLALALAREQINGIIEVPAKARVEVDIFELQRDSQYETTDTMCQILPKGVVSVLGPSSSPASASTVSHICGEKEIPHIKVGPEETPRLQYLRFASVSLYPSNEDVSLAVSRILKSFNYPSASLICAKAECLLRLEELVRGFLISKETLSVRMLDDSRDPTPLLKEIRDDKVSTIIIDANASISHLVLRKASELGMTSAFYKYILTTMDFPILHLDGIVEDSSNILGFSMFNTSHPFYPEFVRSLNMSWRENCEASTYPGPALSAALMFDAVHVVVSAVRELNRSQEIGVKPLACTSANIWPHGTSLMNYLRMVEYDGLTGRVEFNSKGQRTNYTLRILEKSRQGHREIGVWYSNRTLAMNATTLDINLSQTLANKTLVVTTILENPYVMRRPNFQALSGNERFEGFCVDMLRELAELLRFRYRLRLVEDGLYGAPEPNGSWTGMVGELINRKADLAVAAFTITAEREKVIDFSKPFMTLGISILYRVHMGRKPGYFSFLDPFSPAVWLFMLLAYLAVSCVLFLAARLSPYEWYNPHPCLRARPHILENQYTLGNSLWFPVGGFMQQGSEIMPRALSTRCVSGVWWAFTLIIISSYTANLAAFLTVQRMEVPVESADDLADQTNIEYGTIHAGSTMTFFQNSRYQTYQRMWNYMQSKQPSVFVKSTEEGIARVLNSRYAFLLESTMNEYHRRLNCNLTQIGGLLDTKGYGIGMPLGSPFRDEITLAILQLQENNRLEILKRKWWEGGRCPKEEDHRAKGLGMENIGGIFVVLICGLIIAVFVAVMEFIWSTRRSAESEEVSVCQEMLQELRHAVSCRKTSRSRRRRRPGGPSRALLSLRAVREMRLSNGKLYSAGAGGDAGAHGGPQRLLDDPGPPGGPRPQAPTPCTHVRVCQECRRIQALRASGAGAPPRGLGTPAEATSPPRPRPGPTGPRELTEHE

With GluK2 (from UniProt P42260) as the substance, how does the Kd [1] read?
Its Kd is 350 nM.

And the Kd [2]?
Its Kd is 77 nM.
